From US20110070243A1 (published 2011)

T1: human CD79b (TAHO5) 21mer peptide (human)
T1 peptide: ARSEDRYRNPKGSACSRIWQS

T2: cyno CD79b (TAHO40) (cynomolgus monkey)
T2 construct: Target on BJAB-cyno CD79b cells (BJAB transfected with cyno CD79b) and on cynomolgus B cells; also called cynomolgus CD79b; PRO283627
T2 chain: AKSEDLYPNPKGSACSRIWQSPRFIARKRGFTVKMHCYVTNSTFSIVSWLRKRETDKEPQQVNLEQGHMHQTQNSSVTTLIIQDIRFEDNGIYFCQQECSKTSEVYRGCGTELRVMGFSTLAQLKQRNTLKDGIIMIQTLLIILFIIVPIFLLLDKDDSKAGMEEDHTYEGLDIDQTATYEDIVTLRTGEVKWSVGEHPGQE

T3: cyno CD79b (TAHO40) 21mer peptide (cynomolgus monkey)
T3 construct: also called cyno CD79b (TAHO40) 20 mer peptides
T3 peptide: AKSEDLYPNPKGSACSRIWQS

T4: rhesus CD79b (rhesus monkey, UniProt H9ZFT8 30-231)
T4 construct: whole, on cells; also called rhesus monkey CD79b
T4 sequence: T2 chain

T5: human CD79b (TAHO5) (human, UniProt P40259 29-229)
T5 construct: also called PRO36249; Igbeta
T5 sequence: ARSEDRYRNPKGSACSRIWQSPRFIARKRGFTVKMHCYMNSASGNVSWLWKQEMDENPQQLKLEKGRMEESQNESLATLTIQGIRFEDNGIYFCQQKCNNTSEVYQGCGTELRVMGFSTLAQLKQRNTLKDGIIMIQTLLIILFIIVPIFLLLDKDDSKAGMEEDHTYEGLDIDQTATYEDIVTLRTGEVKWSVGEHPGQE

B1: anti-cyno-CD79b-10D10 (antibody, V domains shown)
VH: EVQLQESGPGLVKPSQSLSLTCTVTGYSITSDYAWNWIRQFPGNKLEWMGNIWYSGSTTYNPSLKSRISITRDTSKNQFFLQLNSVTSEDTATYYCSRMDFWGQGTTLTVSS
VL: DIVLTQSPPSLAVSLGQRATISCRASESVDSYGKTFMHWHQQKPGQPPKLLIYRVSNLESGIPARFSGSGSRTDFTLTINPVEADDVATYYCQQSNEDPFTFGGGTKLEIKR
notes: Murine hybridoma monoclonal antibody; also called 10D10.3; ATCC PTA-7715
B2: anti-human-CD79b-2F2 (antibody, V domains shown)
VH: QVQLQQPGAELVRPGASVKLSCKASGYTFTSYWMNWVKQRPGQGLEWIGMIDPSDSETHYNHIFKDKATLTVDKSSSTAYLQLSSLTSEDSAVYYCARNLYLWGQGTSVTVSL
VL: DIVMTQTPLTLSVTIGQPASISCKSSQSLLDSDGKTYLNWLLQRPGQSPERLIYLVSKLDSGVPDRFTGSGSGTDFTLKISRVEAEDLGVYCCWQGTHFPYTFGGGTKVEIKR
notes: Murine hybridoma monoclonal antibody; also called 2F2.20.1; anti-human CD79b (TAHO5) (2F2)
B3: anti-human CD79b (TAHO5) antibody SN8 (antibody, V domains shown)
VL: DIVLTQSPASLAVSLGQRATISCKASQSVDYDGDSFLNWYQQKPGQPPKLFIYAASNLESGIPARFSGSGSGTDFTLNIHPVEEEDAATYYCQQSNEDPLTFGAGTELELKR
VH: EVQLQQSGAELMKPGASVKISCKATGYTFSSYWIEWVKQRPGHGLEWIGEILPGGGDTNYNEIFKGKATFTADTSSNTAYMQLSSLTSEDSAVYYCTRRVPVYFDYWGQGTSVTVSS
notes: Murine monoclonal antibody, commercial (Biomeda, BD, Ancell) or from the Roswell Park hybridoma; also called anti-human CD79b (SN8)

Legend:
[1] = target: T1, human CD79b (TAHO5) 21mer peptide; assay: peptide competition: antibody pre-incubated with the human 21mer peptide, then FACS staining of cells
[2] = target: T2, cyno CD79b (TAHO40); assay: Scatchard analysis on BJAB-cyno CD79b cells
[3] = target: T3, cyno CD79b (TAHO40) 21mer peptide; assay: peptide competition: antibody pre-incubated with the cyno peptide, then FACS staining of BJAB cells
[4] = target: T2, cyno CD79b (TAHO40); assay: staining of cynomolgus monkey B cells; method not detailed
[5] = target: T4, rhesus CD79b; assay: staining of rhesus monkey B cells; method not detailed
[6] = target: T5, human CD79b (TAHO5); assay: Scatchard analysis on BJAB-cyno CD79b cells (which also express human CD79b)

Binder	binding result [1]	Kd [2] [nM]	binding result [3]	binding result [4]	binding result [5]	Kd [6] [nM]
B1	no binding (tested: antibody:peptide 1:10)	1	–	–	–	–
B2	–	–	no binding (tested: antibody:peptide 1:10)	no binding	no binding	–
B3	–	–	no binding (tested: antibody:peptide 1:10)	no binding	no binding	0.5
